This is an account of results in patent publication US20220259593A1, “CONTROL OF MAMMALIAN GENE DOSAGE USING CRISPR” (The Regents of the University of California, priority 2019, published 2022).

For this data set, the system named is K562 CRISPRi cells. The experiment in a line: Constant region variant library pooled growth screen, K562. In kind it is cell-based, human. Particulars: sgRNA constant region variants. The text has this:
We calculated relative activities for each targeting sequence:constant region pair by normalizing its phenotype to that of the targeting sequence paired with the unmodified constant region, identifying 409 constant region variants that on average conferred intermediate activity (0.1-0.9, FIG. 5B). Ten variants selected for individual evaluation also mediated intermediate levels of mRNA knockdown (FIG. 6B). Mapping the activities of constant region variants with single base substitutions onto the structure recapitulated known relationships between constant region structure and function (FIG. 5C).
The sequences in the library of modified constant regions were derived from the sgRNA (F+E) optimized sequence (23) modified to include a BlpI site (15). Each modified constant region was paired with 36 sgRNA targeting sequences (3 sgRNAs targeting each of 10 essential genes and six non-targeting negative control sgRNAs). The cloning strategy (described below) allowed the mutation of most positions in the sgRNA constant region. A variety of modifications were made, including substitutions of all single bases not in the BlpI restriction site (which is used for cloning), double substitutions including all substitutions at base-paired position pairs not before or in the BlpI site, and a variety of triple, quadruple, and sextuple substitutions, including base-pair-preserving substitutions at adjacent base-pairs.
The library was ordered and cloned in two parts. One part consisted of ˜100 modifications to the eight bases upstream of the BlpI restriction site. Constant region variants with mutations in this section were paired with each of the 36 targeting sequences, ordered as a pooled oligonucleotide library (Twist Biosciences), and cloned into pCRISPRia-v2 as described above. The second part consisted of ˜900 modifications to the 71 bases downstream of the BlpI restriction site. This part was cloned in two steps. First, all 36 targeting sequences were individually cloned into pCRISPRia-v2 as described above. The vectors were then pooled at an equimolar ratio and digested with BlpI (NEB) and XhoI (NEB). The modified constant region variants were ordered as a pooled oligonucleotide library (Twist Biosciences), PCR amplified with Phusion polymerase (NEB), digested with BlpI (NEB) and XhoI (NEB), and ligated into the digested vector pool, in a manner identical to previously published protocols and as described above, except for the different restriction enzymes.
Screens with the compact mismatched sgRNA library and the constant region library were conducted largely as described above, with smaller modifications during the screening procedure and an updated sequencing library preparation protocol. Briefly, the libraries were transduced in duplicate into K562 CRISPRi (both libraries) or HeLa CRISPRi cells (compact mismatched sgRNA library) as described above. K562 replicates were maintained separately in 0.15 to 0.3 L of RPMI-1640 in 0.3 L spinner flasks for the course of the screen. HeLa replicates were maintained in sets of ten 15-cm plates. Cells were selected with puromycin as described above (K562: 1 day of 0.75 μg/mL and 1 day of 0.85 μg/mL; HeLa: 2 days of 0.8 μg/mL and 1 day of 1 μg/mL). The remainder of the screen was carried out at >1000× library coverage (K562 compact mismatched sgRNA library: >2000×; HeLa compact mismatched sgRNA library: >1000×; K562 constant region library: >2000×). Multiple samples were harvested after 4 to 8 days of growth. For the drug screen, 10 μM lovastatin (ApexBio) or an equivalent volume of DMSO (vehicle) was added to flasks at t=0, and 3 days later cells were pelleted and re-suspended in fresh medium. Lovastatin (12 μM) or DMSO was again added after 5 and 9 days of growth, with media exchanges 3 days after drug supplementation. Multiple samples were harvested after 4 to 8 days for the K562 and HeLa growth screens. […]

The mark [1] stands for this setting: activity relative to the un-modified constant region cr995.
[2] abbreviates: activity relative to the original, un-modified constant region cr995.

Where a chain is given by its changes, count along the chain named.

B1: cr284 (nucleic acid)
guide: GTTTAAGAGCTAAGCTGGAAACAGCATAGCAAGTTTAAATAAGGCTAGTCCGTTATCAACTTGAGAAAGTGGCACCAAGTTGGTGCT
modifications: listed as DNA, chemistry not fully specified
Consider B1, for which the Mean relative activity under setting [1] came to 0.9497.

B2: cr371 (nucleic acid)
guide: B1 guide with T54C, T56G, G65A, A77G, G79C, T81C
modifications: listed as DNA, chemistry not fully specified
Under setting [1], B2 displayed a Mean relative activity of 0.9355.

B3: cr142 (nucleic acid)
guide: B1 guide with G65A, A77T, T81A
modifications: listed as DNA, chemistry not fully specified
For B3, the Mean relative activity under setting [1] is recorded as 0.9406.

B4: cr693 (nucleic acid)
guide: B1 guide with G65A, A74T, T84A
modifications: listed as DNA, chemistry not fully specified
B4 displayed a Mean relative activity under setting [1] of 0.9369.

B5: cr983 (nucleic acid)
guide: B1 guide with G65A, C73T, A77G, T81C
modifications: listed as DNA, chemistry not fully specified
B5 displayed a Mean relative activity under setting [1] of 0.9491.

B6: cr703 (nucleic acid)
guide: B1 guide with A66G, A77G, T81C
modifications: listed as DNA, chemistry not fully specified
In the case of B6, the Mean relative activity under setting [1] is on record as 0.9472.

B7: cr285 (nucleic acid)
guide: B1 guide with C22A, G65A, A77G, T81C
modifications: listed as DNA, chemistry not fully specified
B7 displayed a Mean relative activity under setting [1] of 0.9449.

B8: cr450 (nucleic acid)
guide: B1 guide with A74G, A77G, T81C, T84C
modifications: listed as DNA, chemistry not fully specified
For the molecule B8, under setting [2], the Mean relative activity is 1.064.

B9: cr553 (nucleic acid)
guide: B1 guide with A47G, G65T, A77G, T81C
modifications: listed as DNA, chemistry not fully specified
B9: the Mean relative activity under setting [1] is 0.9385.

B10: cr231 (nucleic acid)
guide: B1 guide with T49A, A77G, T81C
modifications: listed as DNA, chemistry not fully specified
B10 had a Mean relative activity under setting [1] of 0.9485.

B11: cr291 (nucleic acid)
guide: B1 guide with G65A, G72C, C75T, A77G, T81C, G83A, C86G
modifications: listed as DNA, chemistry not fully specified
B11: the Mean relative activity under setting [1] is on record as 0.9321.

B12: cr576 (nucleic acid)
guide: B1 guide with T16C, G65A, A77G, T81C
modifications: listed as DNA, chemistry not fully specified
Consider B12, for which the Mean relative activity under setting [1] was determined as 0.935.

B13: cr823 (nucleic acid)
guide: B1 guide with T62A, G65A, A67T, C76T, A77G, T81C, G82A
modifications: listed as DNA, chemistry not fully specified
The molecule B13 showed a Mean relative activity under setting [1] of 0.936.

B14: cr908 (nucleic acid)
guide: B1 guide with C75T, A77G, T81C, G83A
modifications: listed as DNA, chemistry not fully specified
For B14, under setting [1], the Mean relative activity was 0.9455.

B15: cr822 (nucleic acid)
guide: B1 guide with T49A, G65A, A66C, A77G, T81C
modifications: listed as DNA, chemistry not fully specified
As for B15, the Mean relative activity under setting [1] worked out at 0.9333.

B16: cr718 (nucleic acid)
guide: B1 guide with A59T, G65A, T70A, A74C, A77G, T81C, T84G
modifications: listed as DNA, chemistry not fully specified
B16 yielded a Mean relative activity under setting [1] of 0.9447.

B17: cr361 (nucleic acid)
guide: B1 guide with G17C, G65A, A77G, T81C
modifications: listed as DNA, chemistry not fully specified
For the molecule B17, the Mean relative activity under setting [1] is reported as 0.9312.

B18: cr780 (nucleic acid)
guide: B1 guide with T62G, G65A, A67C, A77T, T81A
modifications: listed as DNA, chemistry not fully specified
In turn, B18 showed a Mean relative activity under setting [1] of 0.9287.

B19: cr719 (nucleic acid)
guide: B1 guide with G65A, A77G, T81C, C86A
modifications: listed as DNA, chemistry not fully specified
Under setting [1], B19 registered a Mean relative activity of 0.9381.

B20: cr577 (nucleic acid)
guide: B1 guide with A28G, A42G, A55C, G65A, A77G, T81C
modifications: listed as DNA, chemistry not fully specified
The molecule B20 came in with a Mean relative activity under setting [1] of 0.9309.

B21: cr375 (nucleic acid)
guide: B1 guide with G17T, G65A, A77G, T81C
modifications: listed as DNA, chemistry not fully specified
Regarding B21, the Mean relative activity under setting [1] came out at 0.9294.

B22: cr253 (nucleic acid)
guide: B1 guide with A59G, T61C, G65A, A68G, T70C, A77T, T81A
modifications: listed as DNA, chemistry not fully specified
Turning to B22, the Mean relative activity under setting [1] is on record as 0.9384.

B23: cr546 (nucleic acid)
guide: B1 guide with C60A, G69T, A77G, T81C
modifications: listed as DNA, chemistry not fully specified
On to B23, for which the Mean relative activity under setting [1] was found to be 0.9326.

B24: cr529 (nucleic acid)
guide: B1 guide with G65A, C76T, A77G, T81C, G82A
modifications: listed as DNA, chemistry not fully specified
Take B24: the Mean relative activity under setting [1] is reported as 0.9488.

B25: cr953 (nucleic acid)
guide: B1 guide with G65A, A77G, A78C, T81C
modifications: listed as DNA, chemistry not fully specified
Regarding B25, the Mean relative activity under setting [1] is 0.9337.

B26: cr243 (nucleic acid)
guide: B1 guide with T62C, G65A, A67G, A74C, C76T, A77G, T81C, G82A, T84G
modifications: listed as DNA, chemistry not fully specified
Under setting [1], B26 came in with a Mean relative activity of 0.9319.

B27: cr630 (nucleic acid)
guide: B1 guide with A55G, T56C, G65A, A77G, G79C, T81C
modifications: listed as DNA, chemistry not fully specified
The molecule B27 registered a Mean relative activity under setting [1] of 0.9325.

B28: cr612 (nucleic acid)
guide: B1 guide with A20T, G65A, A77G, T81C
modifications: listed as DNA, chemistry not fully specified
As for B28, the Mean relative activity under setting [2] came out at 1.064.

B29: cr421 (nucleic acid)
guide: B1 guide with G65A, A68C, A77G, T81C
modifications: listed as DNA, chemistry not fully specified
In the case of B29, the Mean relative activity under setting [1] was found to be 0.9381.

B30: cr116 (nucleic acid)
guide: B1 guide with T61G, G65A, A68C, A77G, T81C
modifications: listed as DNA, chemistry not fully specified
Under setting [2], B30 had a Mean relative activity of 1.064.
